From patent US20200095340A1
Substitutions are numbered along the chain they refer to.

B1: anti-DLL3 trispecific protein 1B05 (protein, part only; not given: CD3 binder and albumin binder, part only)
chain, part: EVQLVESGGGLVQPGGSLTLSCVASGSTSSINAMAWYRRAPGKQRELVAGISSDGSKVYADSVKGRFTISRDNAKNSVYLQMNSLRAEDTAVYYCYYYRTVSGSSMRYWGQGTLVTVSSGGGGSGGGSGGGGSGGGSHHHHHH
B2: anti-DLL3 trispecific protein 2A01 (protein, part only; not given: anti-CD3 fragment and anti-albumin sdAb, part only)
chain, part: B1 chain, part with A35G, Y59V, Y98F, V101L
B3: anti-DLL3 trispecific protein 3H06 (protein, part only; not given: anti-CD3 and anti-albumin domains, part only)
chain, part: EVQLVESGGGLVQPGGSLTLSCAASGSSVSQLSMAWYRQAPGKKRELVAGISADGSTDYFDSVKGRFTISRDNAKNSVYLQMNSLRAEDTAVYYCYAYRWTTRGTYWGQGTLVTVSSGGGGSGGGSGGGGSGGGSHHHHHH
B4: anti-DLL3 trispecific protein 1E04 (protein, part only; not given: anti-CD3 fragment and anti-albumin sdAb, part only)
chain, part: B1 chain, part with S30R, A33G, A35G, V48P, V58A, Y98F, V101A, S104T
B5: anti-DLL3 trispecific protein 1C04 (protein, part only; not given: anti-CD3 fragment and anti-albumin sdAb, part only)
chain, part: B1 chain, part with S27N, Y98F
B6: anti-DLL3 trispecific protein 3A02 (protein, part only; not given: CD3 fragment and albumin sdAb, part only)
chain, part: B3 chain, part with Q31F, M34L, D58A, F60I, T101R, G104Y
B7: anti-DLL3 trispecific protein 2A03 (protein, part only; not given: CD3 fragment and albumin sdAb, part only)
chain, part: B1 chain, part with S27T, A35G, A60G, Y98F, S105A
B8: anti-DLL3 trispecific protein 4F011 (protein, part only; not given: anti-CD3 and anti-albumin domains, part only)
chain, part: B3 chain, part with S28K, Q31F, T57K, F60I, G104Y
B9: anti-DLL3 trispecific protein 3C05 (protein, part only; not given: anti-CD3 and anti-albumin domains, part only)
chain, part: B3 chain, part with A23V, S27T, Q31F, D58T, F60I, G104R
B10: anti-DLL3 trispecific protein 4C05 (protein, part only; not given: anti-CD3 and anti-albumin domains, part only)
chain, part: B3 chain, part with Q31N, D58A, F60I, G104R
B11: anti-DLL3 trispecific protein 1C06 (protein, part only; not given: anti-CD3 and anti-albumin domains, part only)
chain, part: B1 chain, part with S30I, A35G, A60E, Y98F, T100A
B12: anti-DLL3 trispecific protein 2D05 (protein, part only; not given: anti-CD3 fragment and anti-albumin domain, part only)
chain, part: B1 chain, part with S30R, A35G, Y98F, V101A
B13: anti-DLL3 trispecific protein 1G07 (protein, part only; not given: anti-CD3 and anti-albumin domains, part only)
chain, part: B1 chain, part with A35G, Y59V, Y98F, V101Y
B14: anti-DLL3 trispecific protein 1H010 (protein, part only; not given: anti-CD3 fragment and anti-albumin sdAb, part only)
chain, part: B1 chain, part with S29R, A35G, A60N, Y98F, Y108F
B15: anti-DLL3 trispecific protein 2E09 (protein, part only; not given: anti-CD3 and anti-albumin domains, part only)
chain, part: B1 chain, part with T28V, A35G, D61S, V63A, Y98F, V101L
B16: anti-DLL3 trispecific protein 1C012 (protein, part only; not given: anti-CD3 and anti-albumin domains, part only)
chain, part: B1 chain, part with S27I, A35G, D61G, Y98F, S102R
B17: anti-DLL3 trispecific protein 1A07 (protein, part only; not given: anti-CD3 fragment and anti-albumin domain, part only)
chain, part: B1 chain, part with T28I, A35G, Y98F, T100M
B18: anti-DLL3 trispecific protein 3H010 (protein, part only; not given: anti-CD3 and anti-albumin domains, part only)
chain, part: B3 chain, part with Q31F, D58A, F60I, G104R
B19: anti-DLL3 trispecific protein 4D04 (protein, part only; not given: anti-CD3 fragment and anti-albumin sdAb, part only)
chain, part: B3 chain, part with Q31F, M34I, A53K, F60I, G104M
B20: anti-DLL3 trispecific protein 1B03 (protein, part only; not given: anti-CD3 and anti-albumin domains, part only)
chain, part: B1 chain, part with S27K, A60T, Y98F, M106A
B21: anti-DLL3 trispecific protein 4F09 (protein, part only; not given: anti-CD3 and anti-albumin domains, part only)
chain, part: B3 chain, part with S28R, Q31F, F60I, D61E, G104Y
B22: anti-DLL3 trispecific protein 4G09 (protein, part only; not given: anti-CD3 fragment and anti-albumin domain, part only)
chain, part: B3 chain, part with S28R, Q31F, A53Y, F60I, G104R
B23: anti-DLL3 trispecific protein 3G04 (protein, part only; not given: CD3 binder and albumin binder, part only)
chain, part: B3 chain, part with A23V, S27T, Q31F, D58I, F60I, G104R
B24: anti-DLL3 trispecific protein 2A05 (protein, part only; not given: CD3 fragment and albumin sdAb, part only)
chain, part: B1 chain, part with S27R, A35G, A60N, Y98F, S104T
B25: anti-DLL3 trispecific protein 2A06 (protein, part only; not given: CD3 binder and albumin binder, part only)
chain, part: B1 chain, part with I31R, A35G, Y59T, Y98F, V101R
B26: anti-DLL3 trispecific protein 1F06 (protein, part only; not given: anti-CD3 and anti-albumin domains, part only)
chain, part: B1 chain, part with S27T, A35G, Y59I, Y98F, S102L
B27: anti-DLL3 trispecific protein 1B07 (protein, part only; not given: anti-CD3 and anti-albumin domains, part only)
chain, part: B1 chain, part with T28G, A35G, A60S, Y98F, T100H
B28: anti-DLL3 trispecific protein 4H08 (protein, part only; not given: anti-CD3 fragment and anti-albumin sdAb, part only)
chain, part: B3 chain, part with S30K, Q31F, F60V, T101S, G104Y
B29: anti-DLL3 trispecific protein 4A02 (protein, part only; not given: anti-CD3 fragment and anti-albumin domain, part only)
chain, part: B3 chain, part with S30R, Q31F, A53N, F60I, T101K, G104Y
B30: anti-DLL3 trispecific protein 4F08 (protein, part only; not given: anti-CD3 and anti-albumin domains, part only)
chain, part: B3 chain, part with S28K, Q31F, D58A, F60I, T101R, G104Y
B31: anti-DLL3 trispecific protein 4E010 (protein, part only; not given: anti-CD3 and anti-albumin domains, part only)
chain, part: B3 chain, part with S30K, Q31F, F60I, T101R, G104Y
B32: anti-DLL3 trispecific protein 3H01 (protein, part only; not given: CD3 binder and albumin binder, part only)
chain, part: B3 chain, part with A23V, S30K, Q31F, A53G, D58T, F60I, G104R
B33: anti-DLL3 trispecific protein 3B011 (protein, part only; not given: anti-CD3 and anti-albumin domains, part only)
chain, part: B3 chain, part with Q31F, T57A, F60I, T101V, G104Y
B34: anti-DLL3 trispecific protein 4A09 (protein, part only; not given: anti-CD3 and anti-albumin domains, part only)
chain, part: B3 chain, part with S30K, Q31F, F60I, D61G, G104V

These binders were tested against biotinylated human DLL3 protein expressed as a human IgG1 fusion protein (human) (UniProt Q9NYJ7) (assay: Octet BLI; biotinylated huDLL3-IgG1 fusion on streptavidin tips; single 50 nM; conditioned medium).
Chain of biotinylated human DLL3 protein expressed as a human IgG1 fusion protein (human) (Q9NYJ7 other isoform, or with tags, fused parts or gaps): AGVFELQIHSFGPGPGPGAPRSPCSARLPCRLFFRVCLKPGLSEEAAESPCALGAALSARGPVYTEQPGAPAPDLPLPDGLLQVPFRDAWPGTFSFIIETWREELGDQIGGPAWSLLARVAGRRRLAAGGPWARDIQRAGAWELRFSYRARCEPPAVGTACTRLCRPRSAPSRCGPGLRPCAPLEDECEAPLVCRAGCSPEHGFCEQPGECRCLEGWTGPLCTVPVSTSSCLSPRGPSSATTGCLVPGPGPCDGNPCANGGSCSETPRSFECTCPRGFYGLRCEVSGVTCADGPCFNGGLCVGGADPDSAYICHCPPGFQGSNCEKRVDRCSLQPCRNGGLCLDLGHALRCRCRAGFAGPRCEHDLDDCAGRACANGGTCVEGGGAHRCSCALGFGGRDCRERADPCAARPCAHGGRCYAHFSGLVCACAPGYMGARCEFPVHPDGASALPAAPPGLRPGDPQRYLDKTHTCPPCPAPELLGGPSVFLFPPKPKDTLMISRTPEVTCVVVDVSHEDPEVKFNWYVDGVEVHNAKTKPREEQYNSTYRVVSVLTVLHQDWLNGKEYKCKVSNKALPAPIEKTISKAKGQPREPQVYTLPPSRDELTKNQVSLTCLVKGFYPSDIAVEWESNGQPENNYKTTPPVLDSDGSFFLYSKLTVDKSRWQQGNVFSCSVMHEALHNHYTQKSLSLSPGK

Binder | Kd [nM]
B1 | 8
B2 | 8
B3 | 8
B4 | 8.1
B5 | 8.1
B6 | 8.1
B7 | 8.2
B8 | 8.2
B9 | 8.2
B10 | 8.3
B11 | 8.3
B12 | 8.3
B13 | 8.3
B14 | 8.4
B15 | 8.5
B16 | 8.5
B17 | 8.6

Binder | Kd [nM]
B18 | 8.6
B19 | 8.6
B20 | 8.7
B21 | 8.8
B22 | 8.8
B23 | 8.8
B24 | 8.9
B25 | 8.9
B26 | 8.9
B27 | 8.9
B28 | 8.9
B29 | 9
B30 | 9
B31 | 9
B32 | 9
B33 | 9
B34 | 9
